From article PMC10841842, “Single-molecule quantitation of RNA-binding protein occupancy and stoichiometry defines a role for Yra1 (Aly/REF) in nuclear mRNP organization” (Cell reports, 2023)

B1: Hpr1-mNG (natural protein, S. cerevisiae, UniProt P17629 1-752, looked up)
chain: MSNTEELIQNSIGFLQKTFKALPVSFDSIRHEPLPSSMLHASVLNFEWEPLEKNISAIHDRDSLIDIILKRFIIDSMTNAIEDEEENNLEKGLLNSCIGLDFVYNSRFNRSNPASWGNTFFELFSTIIDLLNSPSTFLKFWPYAESRIEWFKMNTSVEPVSLGESNLISYKQPLYEKLRHWNDILAKLENNDILNTVKHYNMKYKLENFLSELLPINEESNFNRSASISALQESDNEWNRSARERESNRSSDVIFAADYNFVFYHLIICPIEFAFSDLEYKNDVDRSLSPLLDAILEIEENFYSKIKMNNRTRYSLEEALNTEYYANYDVMTPKLPVYMKHSNAMKMDRNEFWANLQNIKESDDYTLRPTIMDISLSNTTCLYKQLTQEDDDYYRKQFILQLCFTTNLIRNLISSDETRNFYKSCYLRENPLSDIDFENLDEVNKKRGLNLCSYICDNRVLKFYKIKDPDFYRVIRKLMSSDEKFTTAKIDGFKEFQNFRISKEKIPPPAFDETFKKFTFIKMGNKLINNVWKIPTGLDKIEQEVKKPEGVYEAAQAKWESKISSETSGGEAKDEIIRQWQTLRFLRSRYLFDFDKVNEKTGVDGLFEEPRKVEALDDSFKEKLLYKINQEHRKKLQDAREYKIGKERKKRALEEEASFPEREQKIKSQRINSASQTEGDELKSEQTQPKGEISEENTKIKSSEVSSQDPDSGVAGEFAPQNTTAQLENPKTEDNNAATSNISNGSSTQDMK
notes: Hpr1, THO complex component, S. cerevisiae; End of the tag read from the name; also called THO complex component Hpr1; source: S. cerevisiae BY4741/2-derived tagged strain, in cryo-ground cell lysate; not shown: mNeonGreen (mNG), C-terminal, kept
B2: Mft1, mNG-tagged (natural protein, S. cerevisiae, UniProt P33441 1-392, looked up)
chain: MPLSQKQIDQVRTKVHYSEVDTPFNKYLDILGKVTKLTGSIINGTLSNDDSKIEKLTEQNISQLKESAHLRFLDLQSSIDTKKVADENWETCQQETLAKLENLKDKLPDIKSIHSKLLLRIGKLQGLYDSVQVINREVEGLSEGRTSLVVTRAEWEKELGTDLVKFLIEKNYLKLVDPGLKKDSSEERYRIYDDFSKGPKELESINASMKSDIENVRQEVSSYKEKWLRDAEIFGKITSIFKEELLKRDGLLNEAEGDNIDEDYESDEDEERKERFKRQRSMVEVNTIENVDEKEESDHEYDDQEDEENEEEDDMEVDVEDIKEDNEVDGESSQQEDNSRQGNNEETDKETGVIEEPDAVNDAEEADSDHSSRKLGGTTSDFSASSSVEEVK
notes: Mft1, THO complex subunit, S. cerevisiae; also called THO complex subunit Mft1; source: S. cerevisiae BY4741/2-derived tagged strain, in cryo-ground cell lysate

Target: the molecule itself
Assay: pull-down; mRNP-SiMPull: lysate of cryo-ground yeast cross-linked with 0.2% formaldehyde, PrA-tagged bait pulled down on rabbit IgG Dynabeads at 8°C for 10 min (mTBT16 buffer: 20 mM HEPES-KOH pH 7.4, 12.5 mM KOAc, 2 mM MgCl2, 0.5% Triton X-100, 0.1% Tween 20), eluted by HRV3C protease, captured on a slide by mNG, HA or Yra1 antibody, TIRF imaging; spot counts and photobleaching steps, no-PrA control subtracted …

Protein | stoichiometry N
B1 | 2
B2 | 2
